Experimental data reported in US20250011468A1.
Each block holds one binder with its values, some of them ahead of it.

Target: human plasma-derived FIXa (Haematologic Technologies Inc) (human) (UniProt P00740)
Test: cell-based or functional assay

Chain of human plasma-derived FIXa (Haematologic Technologies Inc) (human) (P00740 47-191, chain 1 of 2): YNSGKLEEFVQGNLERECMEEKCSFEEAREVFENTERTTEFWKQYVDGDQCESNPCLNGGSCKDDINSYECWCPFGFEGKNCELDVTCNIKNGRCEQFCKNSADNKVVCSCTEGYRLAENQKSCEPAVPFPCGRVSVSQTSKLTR
Chain of human plasma-derived FIXa (Haematologic Technologies Inc) (human) (P00740 227-461, chain 2 of 2): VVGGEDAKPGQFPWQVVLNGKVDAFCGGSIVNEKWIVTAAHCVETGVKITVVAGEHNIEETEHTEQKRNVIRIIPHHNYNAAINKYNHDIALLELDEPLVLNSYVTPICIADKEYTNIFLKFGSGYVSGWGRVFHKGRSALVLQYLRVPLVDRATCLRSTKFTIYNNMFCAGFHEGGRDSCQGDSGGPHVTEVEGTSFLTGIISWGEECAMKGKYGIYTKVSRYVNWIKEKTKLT

FXa generation rate at 3.2 nM mAb: 20 pM/min
FXa generation rate at 6.3 nM mAb: 17.4 pM/min
FXa generation rate at 12.5 nM mAb: 14.7 pM/min
FXa generation rate at 25 nM mAb: 9 pM/min
FXa generation rate at 50 nM mAb: 9 pM/min
FXa generation rate at 100 nM mAb: 7.2 pM/min
FXa generation rate at 200 nM mAb: 5.5 pM/min
Peak stimulatory activity relative to 224F3 (fold relative to 224F3): 1
B1: 224F3 (anti-FIXa reference antibody, Scheiflinger et al.) (antibody, from another filing, human IgG1, V domains shown)
VH: QVQMQQSGAELVKPGASVKLSCKASGYTFTSQDINWVRQRPEQGLEWIGWIFPGDGSTKYNEKLKGKATLTTDKSSSTAFMQLSRLTSEDSAVYFCARSAYYRYDGSYYYAMDYWGQGTSVTVSS
VL: QIVLTQSPAIMSASLGEEITLTCSASSSVSYMLWYQQKSGTSPKLLIYTTSNLASGVPSRFSGTGSGTFYSLTISSVEAEDAADYYCHQWSSYPRTFGGGTKLEIKR

Stimulation index at 3260 nM OA antibody: < 10 fold
B2: mAb1-1582 (monovalent one-armed version of the anti-FIXa antibody 224F3) (antibody, from another filing, V domains shown)
VH: B1 VH
VL: B1 VL
